± gives the standard deviation of the averaged measurements.
Tested on: Saccharomyces cerevisiae
Assay: protein stability index of tFT-peptide fusion (C-terminal peptide) (PSI (0-1 scale)); higher = more stable (slower turnover)
Settings: genetic background: wild type; temperature: 30 C
Method: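 Multiplexed protein stability (MPS) profiling in S. cerevisiae. Random 12-aa peptides (tFT-X12 library) are fused to the C-terminus of a sfGFP-mCherry tandem fluorescent timer, after mCherry and a GGGS linker. Cells are FACS-sorted into 8 mCherry/sfGFP bins and deep-sequenced. The protein stability index (PSI) is the read-weighted bin average, scaled from 0 (unstable) to 1 (stable). Only peptides with >10 reads are reported; cells were grown at 30 °C in SC-His with glucose.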
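Further: PSI is a weighted mean of sequencing reads over stability bins, variants kept only with over 10 reads, mCherry proximal and sfGFP distal, peptide attached via GGGS linker.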

Sequence	protein stability index
GVLACVEYSRMS	0.683 ± 0.0084
GVLARAYPTLWV	0.68 ± 0.035
GVLGCCGLAWRG	0.697 ± 0.073
GVLRVRLLAFGL	0.65 ± 0.026
GVLVGLGWGWGG	0.7135 ± 0.0011
GVNGFRIVCGGE	0.674 ± 0.062
GVNLFEIVRSVT	0.7169 ± 0.0012
GVNTKEEPNEFI	0.698 ± 0.041
GVPQEGHGLEGY	0.7045 ± 0.00013
GVPRMLVGAFRG	0.684 ± 0.022
GVQSSAPVKVRI	0.6551 ± 0.0046
GVRRPYRSDLRL	0.678 ± 0.023
GVRRVAVLYLLY	0.527 ± 0.041
GVSAKVRRETVR	0.725 ± 0.078
GVSCIAEGRGGV	0.6693 ± 0.0045
GVSGGFVGSSGG	0.62 ± 0.024
GVSTGSGASVAA	0.659 ± 0.051
GVVFGWAGYKGT	0.677 ± 0.034
GVVGDGGRLSGD	0.667 ± 0.022
GVVGTISLFVLD	0.61 ± 0.018
GVVPCVVGFICG	0.687 ± 0.04
GVVRLYYLRIGR	0.652 ± 0.11
GVVVLGRRMGAG	0.6441 ± 0.0049
GVVVRGGEWGLD	0.675 ± 0.061
GVWVMSGPVTRR	0.716 ± 0.053

Sequence	protein stability index
GWAVGVGGGRGR	0.686 ± 0.017
GWAWGVALGVRG	0.54189 ± 0.00034
GWFFFGCFECGG	0.731 ± 0.024
GWFRDCEWGASS	0.712 ± 0.061
GWFWGRGGRGRG	0.657 ± 0.05
GWGFVGGTVAAV	0.705 ± 0.034
GWGHYFGLIREQ	0.698 ± 0.045
GWGLCGRAAGVE	0.692 ± 0.011
GWGWDAVGVGGP	0.711 ± 0.0074
GWLCARGSSSRP	0.649 ± 0.0067
GWLGVRVCLAQR	0.616 ± 0.0081
GWLLGVGDEFRR	0.734 ± 0.031
GWRGDTSGGGWR	0.655 ± 0.03
GWRGRRGERARG	0.749 ± 0.054
GWRGVGVGGGVC	0.689 ± 0.017
GWSGWFSRVLRG	0.726 ± 0.039
GWTLIFGRTSEG	0.678 ± 0.023
GWVKWGVGIGRG	0.734 ± 0.079
GWWGGEGVEGEP	0.6846 ± 0.0015
GWWGGGGGAWSG	0.697 ± 0.065
GYGLGVEAEGLE	0.715 ± 0.054
GYGSSVYAVQKL	0.608 ± 0.0096
GYILSFPSVGGW	0.724 ± 0.049
GYLNWIDTRTSE	0.79 ± 0.086
GYNLTNVIPGVG	0.681 ± 0.016

Sequence	protein stability index
GYPIIIFYSAVQ	0.529 ± 0.051
GYPPDPSPPRLL	0.724 ± 0.015
GYRRELGVCSGD	0.586 ± 0.08
GYTSADHATALY	0.755 ± 0.054
GYWPWGLARVDV	0.698 ± 0.017
HACGGVFLSSVR	0.693 ± 0.025
HAGLLTSSHPGR	0.705 ± 0.018
HAISHRVFLHSP	0.665 ± 0.025
HALWRASVGQCG	0.693 ± 0.068
HAQTNSNSQLLL	0.677 ± 0.0076
HDDQIRASQNKL	0.747 ± 0.026
HDLVRECVGPVH	0.602 ± 0.024
HDVGEYVKKNRF	0.653 ± 0.011
HEGAISLCRQTC	0.592 ± 0.058
HEIRSQSFGLYV	0.687 ± 0.025
HETRGKTEQNWM	0.645 ± 0.053
HFAAVFATSISG	0.675 ± 0.02
HFCFKVFSVRAP	0.627 ± 0.018
HFPFYPSAPPPF	0.713 ± 0.056
HFPTTSITPIYC	0.601 ± 0.019
HFSDLIRFFFFA	0.579 ± 0.064
HGCRLCFISSWL	0.663 ± 0.0057
HGERMRKSPREE	0.672 ± 0.11
HGGSFSAFWYLL	0.676 ± 0.027
HGGTGDPAGIES	0.694 ± 0.013

Sequence	protein stability index
HGTRPFLAPMTP	0.672 ± 0.0092
HGVSERPSISEY	0.6797 ± 0.0066
HGVTPFFSSSPR	0.632 ± 0.012
HGVVGWKVNVGG	0.695 ± 0.018
HHIAYTALSVWS	0.663 ± 0.011
HHVDLHLSLPSP	0.649 ± 0.032
HILESKKAGPGD	0.635 ± 0.053
HILSPPPRPPLV	0.719 ± 0.02
HIPAFLSRFIHG	0.685 ± 0.038
HISACKFPARTA	0.692 ± 0.057
HKGRVRACVFGV	0.666 ± 0.017
HKKRPKIRSNEY	0.622 ± 0.026
HKLYATANHSPM	0.672 ± 0.1
HLFNLVRIRTDL	0.703 ± 0.049
HLGTLYSSPLYR	0.66289 ± 0.00054
HLHAPSPPTLTL	0.682 ± 0.013
HLIQPDPRASNN	0.751 ± 0.098
HLKRFLQVHARL	0.82 ± 0.075
HLLRSDPAWFSG	0.705 ± 0.009
HLPPPPTLPPFP	0.6905 ± 0.0068
HLSDAGSPDGAN	0.628 ± 0.063
HLSLFHIALPPP	0.6888 ± 0.0053
HLTIVNYIWEIL	0.549 ± 0.0059

Reference: the supplement of paper PMC10724198
